Measurements as given in paper PMC6751209.

Target: 53BP1 (UniProt Q12888)
Test: FLAG-53BP1 IP, Myc-PP4R3β immunoblot
Details: reference: wild type, mitotic cells; sites S840

Substance: PP4R3β (from UniProt Q5MIZ7) S840A, mitotic cells
- binding against the reference: weaker
